Columns and labels:
[1] = target: human fibroblast activation protein alpha (FAP), on the cell surface (HT-1080FAP clone 33, 293FAP I/2, MF-SH cells, tumor stromal fibroblasts) (human) (UniProt Q12884); assay: flow cytometry, MF-SH cells (endogenous FAP), antibody at 4,000 ng/ml
[2] = target: human fibroblast activation protein alpha (FAP), on the cell surface (HT-1080FAP clone 33, 293FAP I/2, MF-SH cells, tumor stromal fibroblasts) (human) (UniProt Q12884); assay: flow cytometry, HT-1080FAP clone 33 cells, antibody at 20 ng/ml, anti-human IgG FITC
[3] = target: human fibroblast activation protein alpha (FAP), on the cell surface (HT-1080FAP clone 33, 293FAP I/2, MF-SH cells, tumor stromal fibroblasts) (human) (UniProt Q12884); assay: flow cytometry, HT-1080FAP clone 33 cells, antibody at 0.8 ng/ml, anti-human IgG FITC
[4] = target: human fibroblast activation protein alpha (FAP), on the cell surface (HT-1080FAP clone 33, 293FAP I/2, MF-SH cells, tumor stromal fibroblasts) (human) (UniProt Q12884); assay: flow cytometry, HT-1080FAP clone 33 cells, antibody at 100 ng/ml, anti-human IgG FITC
[5] = target: human fibroblast activation protein alpha (FAP), on the cell surface (HT-1080FAP clone 33, 293FAP I/2, MF-SH cells, tumor stromal fibroblasts) (human) (UniProt Q12884); assay: flow cytometry, HT-1080FAP clone 33 cells, antibody at 4.0 ng/ml, anti-human IgG FITC
[6] = target: human fibroblast activation protein alpha (FAP), on the cell surface (HT-1080FAP clone 33, 293FAP I/2, MF-SH cells, tumor stromal fibroblasts) (human) (UniProt Q12884); assay: flow cytometry, HT-1080FAP clone 33 cells, antibody at 500 ng/ml, anti-human IgG FITC
[7] = target: human fibroblast activation protein alpha (FAP), on the cell surface (HT-1080FAP clone 33, 293FAP I/2, MF-SH cells, tumor stromal fibroblasts) (human) (UniProt Q12884); assay: flow cytometry, HT-1080FAP clone 33 cells, biotinylated antibody at 1.6 ng/ml, streptavidin-FITC
[8] = target: human fibroblast activation protein alpha (FAP), on the cell surface (HT-1080FAP clone 33, 293FAP I/2, MF-SH cells, tumor stromal fibroblasts) (human) (UniProt Q12884); assay: flow cytometry, HT-1080FAP clone 33 cells, biotinylated antibody at 8.0 ng/ml, streptavidin-FITC
[9] = target: human fibroblast activation protein alpha (FAP), on the cell surface (HT-1080FAP clone 33, 293FAP I/2, MF-SH cells, tumor stromal fibroblasts) (human) (UniProt Q12884); assay: flow cytometry, HT-1080FAP clone 33 cells, biotinylated antibody at 40.0 ng/ml, streptavidin-FITC
[10] = target: human fibroblast activation protein alpha (FAP), on the cell surface (HT-1080FAP clone 33, 293FAP I/2, MF-SH cells, tumor stromal fibroblasts) (human) (UniProt Q12884); assay: flow cytometry, HT-1080FAP clone 33 cells, biotinylated antibody at 200.0 ng/ml, streptavidin-FITC
[11] = target: human fibroblast activation protein alpha (FAP), on the cell surface (HT-1080FAP clone 33, 293FAP I/2, MF-SH cells, tumor stromal fibroblasts) (human) (UniProt Q12884); assay: flow cytometry, HT-1080FAP clone 33 cells, biotinylated antibody at 1,000.0 ng/ml, streptavidin-FITC
[12] = target: human fibroblast activation protein alpha (FAP), on the cell surface (HT-1080FAP clone 33, 293FAP I/2, MF-SH cells, tumor stromal fibroblasts) (human) (UniProt Q12884); assay: flow cytometry, HT-1080FAP clone 33 cells, biotinylated antibody at 5,000.0 ng/ml, streptavidin-FITC
[13] = target: human fibroblast activation protein alpha (FAP), on the cell surface (HT-1080FAP clone 33, 293FAP I/2, MF-SH cells, tumor stromal fibroblasts) (human) (UniProt Q12884); assay: flow cytometry competition against 1 µg/ml biotinylated cF19 on HT-1080FAP clone 33 cells; competitor at 1.00 µg/ml
[14] = target: human fibroblast activation protein alpha (FAP), on the cell surface (HT-1080FAP clone 33, 293FAP I/2, MF-SH cells, tumor stromal fibroblasts) (human) (UniProt Q12884); assay: flow cytometry competition against 1 µg/ml biotinylated cF19 on HT-1080FAP clone 33 cells; competitor at 3.16 µg/ml
[15] = target: human fibroblast activation protein alpha (FAP), on the cell surface (HT-1080FAP clone 33, 293FAP I/2, MF-SH cells, tumor stromal fibroblasts) (human) (UniProt Q12884); assay: flow cytometry competition against 1 µg/ml biotinylated cF19 on HT-1080FAP clone 33 cells; competitor at 10.00 µg/ml
[16] = target: human fibroblast activation protein alpha (FAP), on the cell surface (HT-1080FAP clone 33, 293FAP I/2, MF-SH cells, tumor stromal fibroblasts) (human) (UniProt Q12884); assay: flow cytometry competition against 1 µg/ml biotinylated cF19 on HT-1080FAP clone 33 cells; competitor at 31.66 µg/ml

Sequence of UniProt Q12884 (Q12884 whole entry): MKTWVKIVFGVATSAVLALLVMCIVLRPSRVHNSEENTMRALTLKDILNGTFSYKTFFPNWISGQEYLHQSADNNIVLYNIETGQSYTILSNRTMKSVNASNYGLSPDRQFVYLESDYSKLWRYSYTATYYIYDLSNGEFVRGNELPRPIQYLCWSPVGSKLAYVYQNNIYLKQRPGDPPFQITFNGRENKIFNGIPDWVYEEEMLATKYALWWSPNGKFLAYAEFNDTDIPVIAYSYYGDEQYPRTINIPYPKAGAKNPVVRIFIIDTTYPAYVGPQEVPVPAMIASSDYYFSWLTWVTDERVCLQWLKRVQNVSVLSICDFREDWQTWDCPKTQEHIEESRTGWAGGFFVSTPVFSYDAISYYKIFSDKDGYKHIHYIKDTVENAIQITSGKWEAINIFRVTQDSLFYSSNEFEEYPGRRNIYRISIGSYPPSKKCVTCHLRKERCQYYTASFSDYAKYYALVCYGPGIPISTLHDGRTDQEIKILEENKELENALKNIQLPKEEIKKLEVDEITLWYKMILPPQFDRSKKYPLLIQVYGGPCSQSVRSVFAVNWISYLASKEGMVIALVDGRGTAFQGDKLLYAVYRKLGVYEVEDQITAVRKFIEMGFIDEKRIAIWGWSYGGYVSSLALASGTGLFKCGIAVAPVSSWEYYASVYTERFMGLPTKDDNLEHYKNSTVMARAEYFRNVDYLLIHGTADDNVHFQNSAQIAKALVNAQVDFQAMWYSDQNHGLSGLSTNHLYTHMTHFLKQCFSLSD

Mean fluorescence intensity [1]: 0.6
Mean fluorescence intensity [2]: 0.12
Mean fluorescence intensity [3]: 0.12
Mean fluorescence intensity [4]: 0.12
Mean fluorescence intensity [5]: 0.12
Mean fluorescence intensity [6]: 0.12
Mean fluorescence intensity [7]: 0.3
Mean fluorescence intensity [8]: 0.2
Mean fluorescence intensity [9]: 0.2
Mean fluorescence intensity [10]: 0.2
Mean fluorescence intensity [11]: 0.2
Mean fluorescence intensity [12]: 0.2
Mean fluorescence concentration [13]: 9
Mean fluorescence concentration [14]: 11.3
Mean fluorescence concentration [15]: 9.8
Mean fluorescence concentration [16]: 10.3
Substance: hIgG1 (human immunoglobulin, IgG1 subclass), isotype control (antibody)
